This note sets out measurements from patent publication US20100209956A1.

What all share (assay): cell-based or functional assay
Assay [1] addresses soluble form of hepsin encompassing the entire extracellular domain (Arg45-Leu417) and a C-terminal His8 tag (human) (UniProt P05981).
The target of assay [2] is pro-HGF (single-chain hepatocyte growth factor) (UniProt P14210).
Assay [3] concerns the target Met receptor on A549 lung carcinoma cells (UniProt P08581).

Chain of Met receptor on A549 lung carcinoma cells (P08581 25-1390 limits assumed): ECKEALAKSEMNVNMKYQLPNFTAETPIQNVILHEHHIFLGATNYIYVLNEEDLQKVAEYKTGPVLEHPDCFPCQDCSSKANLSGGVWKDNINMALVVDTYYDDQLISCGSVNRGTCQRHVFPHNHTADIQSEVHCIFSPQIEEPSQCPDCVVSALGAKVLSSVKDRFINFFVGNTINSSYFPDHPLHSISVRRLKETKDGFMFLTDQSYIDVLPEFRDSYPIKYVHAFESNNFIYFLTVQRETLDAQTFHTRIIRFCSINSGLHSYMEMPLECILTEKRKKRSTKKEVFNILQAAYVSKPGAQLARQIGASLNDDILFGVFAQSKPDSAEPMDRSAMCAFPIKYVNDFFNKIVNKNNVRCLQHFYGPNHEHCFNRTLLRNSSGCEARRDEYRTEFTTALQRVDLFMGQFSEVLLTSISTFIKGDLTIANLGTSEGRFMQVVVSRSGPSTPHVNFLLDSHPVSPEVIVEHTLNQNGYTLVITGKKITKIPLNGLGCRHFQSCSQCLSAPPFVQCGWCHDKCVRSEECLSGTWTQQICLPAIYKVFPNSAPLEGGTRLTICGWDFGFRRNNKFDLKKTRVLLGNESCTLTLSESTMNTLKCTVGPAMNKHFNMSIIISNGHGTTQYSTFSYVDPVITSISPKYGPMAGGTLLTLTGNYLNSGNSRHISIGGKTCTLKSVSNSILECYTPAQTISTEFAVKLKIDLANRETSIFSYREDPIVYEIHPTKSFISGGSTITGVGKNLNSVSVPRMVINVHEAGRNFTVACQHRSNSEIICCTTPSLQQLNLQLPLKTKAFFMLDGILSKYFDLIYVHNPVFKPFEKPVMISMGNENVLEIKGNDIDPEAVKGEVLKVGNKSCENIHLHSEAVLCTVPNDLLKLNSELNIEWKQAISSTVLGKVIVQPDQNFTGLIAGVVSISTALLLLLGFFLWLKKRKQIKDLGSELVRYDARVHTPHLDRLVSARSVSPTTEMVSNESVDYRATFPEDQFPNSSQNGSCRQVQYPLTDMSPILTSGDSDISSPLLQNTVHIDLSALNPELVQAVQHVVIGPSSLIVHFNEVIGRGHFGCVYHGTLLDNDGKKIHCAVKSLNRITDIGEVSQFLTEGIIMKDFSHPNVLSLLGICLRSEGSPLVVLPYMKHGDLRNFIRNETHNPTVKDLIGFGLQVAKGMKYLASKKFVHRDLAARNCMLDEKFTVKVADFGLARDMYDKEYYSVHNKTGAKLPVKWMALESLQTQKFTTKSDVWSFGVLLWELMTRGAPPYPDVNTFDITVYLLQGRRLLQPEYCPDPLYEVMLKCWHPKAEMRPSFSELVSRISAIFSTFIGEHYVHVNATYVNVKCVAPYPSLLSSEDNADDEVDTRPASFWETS
Chain of pro-HGF (single-chain hepatocyte growth factor) (P14210 32-728 limits assumed): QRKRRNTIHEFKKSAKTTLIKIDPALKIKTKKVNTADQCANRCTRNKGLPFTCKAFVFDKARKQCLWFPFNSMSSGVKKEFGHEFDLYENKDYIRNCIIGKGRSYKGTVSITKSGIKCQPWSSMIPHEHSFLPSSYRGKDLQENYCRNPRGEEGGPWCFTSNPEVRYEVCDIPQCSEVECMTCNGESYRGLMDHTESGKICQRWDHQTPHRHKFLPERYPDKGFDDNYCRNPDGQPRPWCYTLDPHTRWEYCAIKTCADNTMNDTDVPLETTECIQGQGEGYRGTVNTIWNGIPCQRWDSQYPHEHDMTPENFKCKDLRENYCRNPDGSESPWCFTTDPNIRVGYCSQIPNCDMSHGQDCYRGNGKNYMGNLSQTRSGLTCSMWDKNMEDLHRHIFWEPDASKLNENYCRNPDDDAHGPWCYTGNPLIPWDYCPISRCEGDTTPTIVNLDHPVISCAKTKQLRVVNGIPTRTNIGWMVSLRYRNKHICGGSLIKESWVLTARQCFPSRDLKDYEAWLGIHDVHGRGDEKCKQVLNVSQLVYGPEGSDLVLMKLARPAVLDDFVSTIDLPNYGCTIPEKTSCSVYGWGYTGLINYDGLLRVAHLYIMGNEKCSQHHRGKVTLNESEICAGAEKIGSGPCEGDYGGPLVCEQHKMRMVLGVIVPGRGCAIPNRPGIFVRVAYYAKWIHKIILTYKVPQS
Chain of soluble form of hepsin encompassing the entire extracellular domain (Arg45-Leu417) and a C-terminal His8 tag (human) (P05981 45-162 limits assumed, chain 1 of 2): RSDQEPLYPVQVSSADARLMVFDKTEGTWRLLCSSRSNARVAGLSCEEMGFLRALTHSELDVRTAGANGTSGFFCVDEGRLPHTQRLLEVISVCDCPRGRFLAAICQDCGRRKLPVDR
Chain of soluble form of hepsin encompassing the entire extracellular domain (Arg45-Leu417) and a C-terminal His8 tag (human) (P05981 other isoform, or with tags, fused parts or gaps limits assumed, chain 2 of 2): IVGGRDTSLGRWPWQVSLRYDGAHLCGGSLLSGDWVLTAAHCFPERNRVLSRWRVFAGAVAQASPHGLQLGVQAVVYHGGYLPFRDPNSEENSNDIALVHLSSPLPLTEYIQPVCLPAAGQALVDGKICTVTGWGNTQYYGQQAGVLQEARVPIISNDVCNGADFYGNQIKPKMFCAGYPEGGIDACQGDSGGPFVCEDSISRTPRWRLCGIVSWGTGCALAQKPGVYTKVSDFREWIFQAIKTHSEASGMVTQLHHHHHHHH

As for “soluble form of HAI-1B (sHAI-1B) comprising the entire extracellular domain (from UniProt O43278 36-465)”, the IC50, inhibition of hepsin enzymatic activity towards S2366 (amidolytic assay) in assay [1] turned out to be 21.1 nM. Substance “HGFA (hepatocyte growth factor activator) comprising residues Val373-Arg407 (from UniProt Q04756 373-407) (enzyme)” gave a percent of unlabelled pro-HGF (0.3 mg/ml) converted into HGF by 40 nM enzyme in assay [2] of more than 95%. On to “HGFhepsin (HGF produced by activation of pro-HGF with hepsin) (from UniProt P14210 32-728; P14210 32-728) (ligand)”, for which the Met phosphorylation in a kinase receptor assay (KIRA) with A549 cells: concentration of maximal activity in assay [3] amounted to 250 ng/mL.

In the case of “soluble form of hepsin encompassing the entire extracellular domain (Arg45-Leu417) and a C-terminal His8 tag (from UniProt P05981 45-162; P05981 163-417) (enzyme)”, the percent of unlabelled pro-HGF (0.3 mg/ml) converted into HGF by 40 nM enzyme in assay [2] was more than 95%. Substance “HGFHGFA (HGF produced by activation of pro-HGF with HGFA) (from UniProt P14210 32-728; P14210 32-728) (ligand)” returned a Met phosphorylation in a kinase receptor assay (KIRA) with A549 cells: concentration of maximal activity in assay [3] of 250 ng/mL.
